# Measurements as given in the supplement of paper PMC9170038.
# Tested on: MS2 coat protein
# Assay: apparent KD of MS2 coat protein; higher = weaker reporter binding
# Details: Eterna round: R107
# Outline: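 Illumina sequencing clusters served as templates for on-chip transcription of the designed RNA switches. SNAP-549-labelled MS2 coat protein was then titrated in twofold steps from 0.7 or 1.5 nM to 3 µM, allowing 0.8–1.5 h per step at first and 10–20 min per step later. The buffer held 100 mM Tris-HCl pH 7.5, 80 mM KCl and 4 mM MgCl2, without or with constant ligand. Apparent KD is the median per design of normalised cluster binding-curve fits.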
# [1] = input ligand: theophylline 20 uM
# [2] = input ligand: theophylline 2 mM
# [3] = input ligand: tryptophan 2.4 mM
Sequence,apparent KD of MS2 coat protein (input ligand: arginine 13.2 mM),apparent KD of MS2 coat protein (input ligand: none),apparent KD of MS2 coat protein [1],apparent KD of MS2 coat protein [2],apparent KD of MS2 coat protein [3]
GGCCGUGCGAGCGCUCGCGUGGCCGCGGAUACCAGCGAGGUCCAUCGCCCUUGGCAGCCGAACAUGAGGAUCACCCAUGUCGGUA [#1 Same State - Theophylline A Attempt #14 (HarryS)],8.93 nM,11 nM,15.2 nM,17.3 nM,9.77 nM
AUUAACAUGAGGAUCACCCAUGUUUGUCUCCGAGGACCGGUACGGCCGCCACUCGCAGGUUGGAGUCGCUAUAUGGGCGUUCACU [theeternabot_sameState_MS2_Trp_A_42],31.7 nM,,53.5 nM,64.9 nM,
GGACUAACCAGAAGGAGCGACGCGCAGAAACUGCAAUUUCCUCCACACGAGGAUCACCCGUGUCAGGUAGGUCGCUGGUUAGUCG,15 nM,17.4 nM,18.7 nM,17.6 nM,16.6 nM
GGCGCGCGCCAACAUGAGGAUCACCCAUGUCGAGGACCGGUACGGCCGCCACUCGAACGAGUGAAGCGCGCGCGCGGAGCGCCGC [Taa],24 nM,37.1 nM,47.8 nM,47 nM,60.1 nM
AGCCUCAUACAUGAGGAUCACCCAUGUGAUACCAGUCAGGAAACUGACCCUUGGCAGCGCAUGAGGAUCACCCAUGUGCGAGGCA [Omei Theo A Exc A v2],25.1 nM,,171 nM,,32.9 nM
GUCACCAGGAGAAGGAGCGUGAAGACAUGAGGAUCACCCAUGUAGAGGCGCCGACGGCGUUCGCAGGUAGGUCGCUCCUGGUGAC [#1 Same State - Arginine B Attempt #17 (HarryS)],22 nM,20.5 nM,35.2 nM,26.6 nM,20.4 nM
AGCCCUGUGCUAGAUACCAGCUACAUGAGGAUCACCCAUGUGCGUCAGGACUGACUGUGUAGCCCUUGGCAGCUACUCGCAUGUA [Exclusion - Theophylline B (Freestyle 5)],14.4 nM,,20 nM,,14.5 nM
ACCUGCGUUUGAUAAAAUCAGACGCAGGUUCGAGGACCGGUACGGCCGCCACUCGGACAUGAGGAUCACCCAUGUUUGACAUGGG [#05 Exclusion Tryptophan A],168 nM,,301 nM,746 nM,
AGCUCGCUUCCUCAAGCGUCAAAGACGCGUCGAGGACCGGUACGGCCGCCACUCGACCUGAGGAUCACCCGGGUCUAAGCGAGCA [TrypAX 8 #SwitchBubble #AlternativeMS2 #MS2Late #CuTurnoff],45.8 nM,115 nM,136 nM,177 nM,325 nM
GGAUGCGGCACGGCCGCCACUGCGGUGGUGUGACAUGAGGAUCACCCAUGUUGUCAUGCGGCCCUUAGGACCGGGUGGCGUUUCC [#1 Exclusion - Tryptophan B Attempt #20 (HarryS)],38 nM,56.7 nM,73.6 nM,66.7 nM,62.9 nM
AGAUGUAGCGGAAGGAGCGACAUGAGGAUCACCCAUGUCUCCCGUUGUGGGAGUUCCUUAGGUCAGGUAGGUCGCCGUUACGUCA [Omei Arg B SS B v2],121 nM,230 nM,153 nM,259 nM,132 nM
AUAAUAAUCCUCAUGUAAGGUCCUCGAUAACGAGGACCGGUACGGCCGCCACUCGAACAUGAGGAUCACCCAUGUACGAGGACCA [M' - T' - T - MS2 - T'' Design 1],19.6 nM,,37 nM,38.2 nM,
AUACGGAACAGAAGGAGCGCACCGACAUGAGGAUCACCCAUGUGGGAUGGGACUCUUUUGGUGCAGGUAGGUCGCUGUCACGCAU [Maistile],129 nM,35 nM,51.9 nM,44 nM,35.5 nM
CGCACAUGAGGAUCACCCAUGUGAGGGUACCGAGGACCGGUACGGCCGCCACUCGCAGGACAUGAGGAUCACCCAUGUGCCGCCG [SSTA DOUBLE!!! :-D #6],24.3 nM,38.3 nM,41.9 nM,44.5 nM,31 nM
AGCCGGAUUACGGCCGCCACUGUAGACGUGACGAAAGUCGCGUCAACAUGAGGAUCACCCAUGUACAGGACCGGGUGGUCAGGCG [Omei Tryp B SS A v4],108 nM,,432 nM,464 nM,
AAUGGCGUUGGUGAGGCGGUUAAUGGCGAUACCAGCGUGGAAACACGCCCUUGGCAGCGCCAAAACAUGAGGAUCACCCAUGUUA [Olomouc],15.8 nM,,23.5 nM,,16.9 nM
AGGACUUGCGUUCAAAAUCCCAUGUUGGAAGGAGCGCAUAUAGUUGCAGGUAGGUCGCCGACAUGAGGAUCACCCAUGUCUUUUC [Zasorequer],36 nM,40.3 nM,43.8 nM,40.5 nM,35.2 nM
AUGUCGUUGAAUAUAGCGGCUUGGUGUGAUACCAGAAUGAUCUAAUUCCCUUGGCAGCAUUACAUGAGGAUCACCCAUGUUCAGG [SSTheo A #20],22 nM,,28 nM,,26.3 nM
CUAUGCAGGUCGGCCGCCACUACACACAUGAGGAUCACCCAUGUAGUUACUGGGUGAAGUGGCAGUAGGACCGGGACCUGCACAC [Brourdmod18],150 nM,436 nM,458 nM,619 nM,431 nM
